Data set [1] concerns the target ZIKV NS5 WT (Zika virus, UniProt A0A024B7W1 2521-3423). The experiment in a line: fluorescence titration; buffer B1; B1: 50 mM Tris-HCl pH 8.0, 150 mM NaCl, 1 mM MgCl2, 2 mM beta-mercaptoethanol, 10% glycerol, 20 C; B2: same with 100 mM NaCl, 20 C. As to conditions: protein: recombinant; tags: N-terminal His6-SUMO, cleaved; label: etheno-A fluorescence; single strand.

Data set [2] has as its target ZIKV NS5 MTase domain WT (Zika virus, UniProt A0A142I5B9 2521-2785). The experiment in a line: fluorescence anisotropy; buffer B2; B1: 50 mM Tris-HCl pH 8.0, 150 mM NaCl, 1 mM MgCl2, 2 mM beta-mercaptoethanol, 10% glycerol, 20 C; B2: same with 100 mM NaCl, 20 C. The following applies: protein: recombinant; tags: N-terminal His6; label: etheno-A fluorescence; single strand. For orientation: Fluorescence polarisation rises when a labelled molecule tumbles more slowly, as on binding a larger partner.

One molecule from publication PMC7413259, “Identification of the viral RNA promoter stem loop A (SLA)-binding site on Zika virus polymerase NS5” can be followed below.

By Kd is commonly meant the constant that tells how readily two partners part at equilibrium. Take AAAAAAAAAAAAAAAAAAAA (ssRNA, all A etheno-modified (1,N6-ethenoadenosine)) [epsilonA(p-epsilonA)19 20-mer ssRNA]: the Kd in data set [1] was 500 nM; in data set [2], 910 nM.
